The record followed here is the Immune Epitope Database (IEDB).

Assay [1] has as its target HLA-A*02:01. The assay is described as follows: IEDB peptide-MHC binding, purified MHC/competitive/fluorescence; ≥ and ≤ were set here for values at or beyond the usual limits of such assays.
In another assay the target is HLA-A*30:01. The assay is described as follows: IEDB peptide-MHC binding, purified MHC/competitive/radioactivity; filed as Kd, often an IC50 or EC50 that approximates it; ≥ and ≤ were set here for values at or beyond the usual limits of such assays.
Another assay concerns the target HLA-A*24:02. Nature of the assay: IEDB peptide-MHC binding, purified MHC/competitive/fluorescence; ≥ and ≤ were set here for values at or beyond the usual limits of such assays.
The target of a further assay is HLA-A*32:01. The assay is described as follows: IEDB peptide-MHC binding, purified MHC/competitive/radioactivity; filed as Kd, often an IC50 or EC50 that approximates it; ≥ and ≤ were set here for values at or beyond the usual limits of such assays.
For the next assay, the target named is HLA-B*35:01. The assay is described as above.
Assay [2] concerns the target HLA-A*03:01. Nature of the assay: IEDB peptide-MHC binding, purified MHC/direct/fluorescence; filed as Kd, often an IC50 or EC50 that approximates it; ≥ and ≤ were set here for values at or beyond the usual limits of such assays. As to conditions: source organism: Francisella tularensis subsp. tularensis FSC198.
Assay [3] concerns the target HLA-A*31:01. The assay is described as above.
Another assay concerns the target HLA-A*30:02. Nature of the assay: IEDB peptide-MHC binding, purified MHC/competitive/radioactivity; filed as Kd, often an IC50 or EC50 that approximates it; ≥ and ≤ were set here for values at or beyond the usual limits of such assays. The following applies: source organism: Dengue virus 4 Philippines/H241/1956.
In the next assay the target is HLA-A*23:01. The description is as above. As to conditions: source organism: Dengue virus 2 Jamaica/1409/1983.
Assay [4] deals with HLA-A*03:01. Described as above.
Another assay addresses HLA-A*11:01. The assay is described as above.
The next assay concerns the target HLA-A*26:01. The description is as above.
In assay [5] the target is HLA-A*02:01. Nature of the assay: IEDB peptide-MHC binding, purified MHC/direct/fluorescence; filed as Kd, often an IC50 or EC50 that approximates it; ≥ and ≤ were set here for values at or beyond the usual limits of such assays. The following applies: source organism: Homo sapiens.
The next assay deals with HLA-B*07:02. Described as above.
A further assay addresses HLA-A*69:01. The assay is described as above.
The target of the next assay is HLA-A*33:01. Nature of the assay: IEDB peptide-MHC binding, purified MHC/competitive/radioactivity; filed as Kd, often an IC50 or EC50 that approximates it; ≥ and ≤ were set here for values at or beyond the usual limits of such assays. As to conditions: source organism: Mammarenavirus machupoense.
The next assay addresses HLA-A*68:01. The description is as above. The following applies: source organism: Mammarenavirus machupoense.
The target of assay [6] is HLA-A*31:01. The description is as above. As to conditions: source organism: Mammarenavirus machupoense.
In the next assay the target is HLA-A*01:01. Nature of the assay: IEDB peptide-MHC binding, purified MHC/direct/fluorescence; filed as Kd, often an IC50 or EC50 that approximates it; ≥ and ≤ were set here for values at or beyond the usual limits of such assays. As to conditions: source organism: Homo sapiens.
The mark [7] stands for this setting: source organism: Zaire ebolavirus.
[8] abbreviates: source organism: Vaccinia virus WR.
Where [9] appears, read: source organism: Dengue virus 3 Martinique/1243/1999.
Where [10] appears, read: source organism: Sudan ebolavirus.
[11] abbreviates: source organism: Dengue virus 1 Brazil/97-11/1997.
Where [12] appears, read: source organism: Mammarenavirus machupoense.
Setting [13] is: source organism: Human herpesvirus 4 strain B95-8.

Some results are limits rather than exact numbers.

Regarding MLTPINEEA, in the assay with HLA-A*02:01 [1] (setting [7]), the IC50 turned out to be 780 nM. Turning to DGIRGFPRC, the IC50 with HLA-A*02:01 [1] (setting [7]) was not below 126000 nM. The same measure, in the same setting: next, LFDLDEDDE: not below 212000 nM. Consider KVKYEGAGA, for which the equilibrium dissociation constant (Kd) with HLA-A*30:01 (source organism: Dengue virus 4 Philippines/H241/1956) came to 123 nM. CLRCSKLNL: the equilibrium dissociation constant (Kd) with HLA-A*30:01 (setting [8]) came out at 482 nM.

Sequence LESRFTPQF showed a 50% inhibitory concentration (IC50) with HLA-A*24:02 (setting [7]) of 16200 nM. Consider HILGPDCCI, for which the half-maximal inhibitory concentration (IC50) with HLA-A*24:02 (setting [7]) was not below 135000 nM; in the assay with HLA-A*02:01 [1] (setting [7]), 66400 nM. Regarding LLYFKVFGI, the dissociation constant (Kd) with HLA-A*32:01 (setting [8]) was not below 37400 nM. GNPGRFWNTT: the dissociation constant (Kd) with HLA-A*32:01 (source organism: Dengue virus 2 Jamaica/1409/1983) amounted to 9900 nM. Consider LPEYGTLGLE, for which the Kd with HLA-B*35:01 (setting [9]) worked out at 4480 nM. As for RLLLNRFTM, the dissociation constant (Kd) in the assay with HLA-A*32:01 (setting [9]) stood at 33.2 nM. LNDTIHLHQ came in with a half-inhibitory concentration (IC50) with HLA-A*24:02 (setting [10]) of 34000 nM.

As for SFSSGWSPR, the figures for the Kd in the assay with HLA-A*03:01 [2] and in the assay with HLA-A*31:01 [3] (source organism: Francisella tularensis subsp. tularensis FSC198) were not below 20000 nM and 3.4 nM, respectively. As for INVEYRFLV, the IC50 with HLA-A*24:02 (setting [8]) was found to be 5730 nM; in the assay with HLA-A*02:01 [1] (setting [8]), 1650 nM.

TFKDESIFI: the half-inhibitory concentration (IC50) in the assay with HLA-A*24:02 (source organism: Vaccinia virus Copenhagen) is 328 nM.

For the sequence RTENFVLSI, the Kd with HLA-A*32:01 (setting [8]) was determined as 1.62 nM. In the assay with HLA-A*31:01 [3] (source organism: SARS-CoV1), KCYGVSATK registered a dissociation constant Kd of 3520 nM. With LINFLLRSI, the dissociation constant Kd with HLA-A*32:01 (setting [8]) was 254 nM. On to ISGQSPART, for which the half-inhibitory concentration (IC50) with HLA-A*02:01 [1] (setting [7]) was not below 137000 nM. On to TGFDWITDY, for which the dissociation constant (Kd) in the assay with HLA-A*30:02 was 1600 nM. Consider IRYQATGFG, for which the IC50 in the assay with HLA-A*24:02 (setting [7]) was 54400 nM. Regarding PFGDSYIII, the Kd in the assay with HLA-A*23:01 is 3960 nM. In the case of ALLATSIFK, the values for the dissociation constant (Kd) in the assay with HLA-A*30:01 (setting [11]), with HLA-A*03:01 [4] (setting [11]) and in the assay with HLA-A*11:01 (setting [11]) were 544 nM, 4.12 nM and 23.4 nM, respectively.

In the assay with HLA-A*24:02 (setting [10]), INQIIHDFI yielded an IC50 of 2770 nM. EIQLTDYGAL: in the assay with HLA-A*26:01 (setting [11]), the Kd came to 5580 nM. In the case of APTGDLPRA, the figures for the Kd with HLA-A*02:01 [5], with HLA-B*07:02 (source organism: Homo sapiens) and in the assay with HLA-A*69:01 (source organism: Homo sapiens) were not below 21800 nM, 5520 nM and 6780 nM, respectively. Turning to KLRCRNTEA, the dissociation constant Kd with HLA-A*30:01 (setting [8]) turned out to be 14.2 nM. Turning to AIKVLKGFK, the equilibrium dissociation constant (Kd) with HLA-A*30:01 (setting [9]) was 1390 nM; with HLA-A*03:01 [4] (setting [9]), 157 nM. For ATARSSPEK, the Kd with HLA-A*30:01 (setting [8]) was determined as 0.584 nM. Consider AVPVHWVPTS, for which the Kd with HLA-A*30:01 (setting [9]) is 10500 nM.

For FRKSSFFVW, the IC50 with HLA-A*24:02 (setting [10]) came out at 2420 nM. LTAGLSVQQ displayed a concentration for half-maximal inhibition (IC50) with HLA-A*02:01 [1] (setting [7]) not below 298000 nM.

As to IAVGMVTLY, the dissociation constant Kd with HLA-B*35:01 (setting [11]) stood at 13.5 nM.

Consider HAHWTEAKM, for which the dissociation constant Kd with HLA-B*35:01 (setting [11]) is 285 nM. KLGLITNTI: in the assay with HLA-A*02:01 [1] (setting [7]), the 50% inhibitory concentration (IC50) is 1920 nM. For the sequence ETTKRDLGM, the Kd with HLA-A*26:01 (setting [9]) was determined as 1450 nM.

Consider STINICLPY, for which, in the assay with HLA-A*32:01 (setting [8]), the Kd stood at 31.5 nM. In turn, DKLSSTNQL showed an IC50 in the assay with HLA-A*24:02 (setting [7]) of 16200 nM. For KTMTTVYIL, the dissociation constant Kd with HLA-A*32:01 (setting [8]) is 13.9 nM. GLVSKFMSN showed a concentration for half-maximal inhibition (IC50) with HLA-A*02:01 [1] (setting [8]) of 13800 nM. YRFLVINRL: the IC50 in the assay with HLA-A*24:02 (setting [8]) came to 900 nM. RTAPPSLYGR: the Kd came to 2390 nM with HLA-A*33:01; 759 nM with HLA-A*30:01 (setting [12]); 16.2 nM in the assay with HLA-A*03:01 [4] (setting [12]); 10.2 nM with HLA-A*68:01; 8.92 nM with HLA-A*11:01 (setting [12]); 1.59 nM with HLA-A*31:01 [6]. SSECQGEML displayed a dissociation constant (Kd) with HLA-A*01:01 of 4760 nM. In the case of GSKASCVLK, the Kd with HLA-A*30:01 (setting [8]) amounted to 265 nM. As to GPILTLWEGN, the dissociation constant Kd with HLA-A*32:01 (source organism: Dengue virus 4 Dominica/814669/1981) was determined as 504 nM. Turning to QPRAPIRPI, the dissociation constant Kd in the assay with HLA-B*07:02 (setting [13]) was found to be 161 nM; with HLA-A*69:01 (setting [13]), 2540 nM.
